From US20210292384A1 (LARIX BIOSCIENCE, published 2021)

B1: LB697-D30E/L79W/N330Y (Fc fusion)
chain: QSTIEEQAKTFLEKFNHEAEDLFYQSSLASWNYNTNITEENVQNMNNAGDKWSAFLKEQSTWAQMYPLQEIQNLTVKLQLQALQQNGSSVLSEDKSKRLNTILNTMSTIYSTGKVCNPDNPQECLLLEPGLNEIMANSLDYNERLWAWESWRSEVGKQLRPLYEEYVVLKNEMARANHYEDYGDYWRGDYEVNGVDGYDYSRGQLIEDVEHTFEEIKPLYEHLHAYVRAKLMNAYPSYISPIGCLPAHLLGDMWGRFWTNLYSLTVPFGQKPNIDVTDAMVDQAWDAQRIFKEAEKFFVSVGLPNMTQGFWEYSMLTDPGNVQKAVCHPTAWDLGKGDFRILMCTKVTMDDFLTAHHEMGHIQYDMAYAAQPFLLRNGANEGFHEAVGEIMSLSAATPKHLKSIGLLSPDFQEDNETEINFLLKQALTIVGTLPFTYMLEKWRWMVFKGEIPKDQWMKKWWEMKREIVGVVEPVPHDETYCDPASLFHVSNDYSFIRYYTRTLYQFQFQEALCQAAKHEGPLHKCDISNSTEAGQKLFNMLRLGKSEPWTLALENVVGAKNMNVRPLLNYFEPLFTWLKDQNKNSFVGWSTDWSPYAD
B2: LB697-D30E/Q42K/L79W/N330Y (Fc fusion)
chain: QSTIEEQAKTFLEKFNHEAEDLFYKSSLASWNYNTNITEENVQNMNNAGDKWSAFLKEQSTWAQMYPLQEIQNLTVKLQLQALQQNGSSVLSEDKSKRLNTILNTMSTIYSTGKVCNPDNPQECLLLEPGLNEIMANSLDYNERLWAWESWRSEVGKQLRPLYEEYVVLKNEMARANHYEDYGDYWRGDYEVNGVDGYDYSRGQLIEDVEHTFEEIKPLYEHLHAYVRAKLMNAYPSYISPIGCLPAHLLGDMWGRFWTNLYSLTVPFGQKPNIDVTDAMVDQAWDAQRIFKEAEKFFVSVGLPNMTQGFWEYSMLTDPGNVQKAVCHPTAWDLGKGDFRILMCTKVTMDDFLTAHHEMGHIQYDMAYAAQPFLLRNGANEGFHEAVGEIMSLSAATPKHLKSIGLLSPDFQEDNETEINFLLKQALTIVGTLPFTYMLEKWRWMVFKGEIPKDQWMKKWWEMKREIVGVVEPVPHDETYCDPASLFHVSNDYSFIRYYTRTLYQFQFQEALCQAAKHEGPLHKCDISNSTEAGQKLFNMLRLGKSEPWTLALENVVGAKNMNVRPLLNYFEPLFTWLKDQNKNSFVGWSTDWSPYAD

Target: T1, RBD domain of SARS-CoV2 spike protein (SARS-CoV-2, UniProt P0DTC2 319-541)
T1 construct: domain: RBD domain
Experiment: Octet (BLI), ACE2-Fc against spike RBD

Row | Binder | Kd | koff | kon
1 | B1 | 1.49 nM | 0.0012 s⁻¹ | 808000 M⁻¹ s⁻¹
2 | B2 | 0.91 nM | 0.00074 s⁻¹ | 810000 M⁻¹ s⁻¹
